# Assay results taken from patent US20240293573A1 (SEOUL NATIONAL UNIVERSITY R AND DB FOUNDATION, published 2024).
# T1: Claudin3 (Homo sapiens (Human), UniProt O15551 1-220)
# T1 construct: also called CLDN3
# T1 sequence: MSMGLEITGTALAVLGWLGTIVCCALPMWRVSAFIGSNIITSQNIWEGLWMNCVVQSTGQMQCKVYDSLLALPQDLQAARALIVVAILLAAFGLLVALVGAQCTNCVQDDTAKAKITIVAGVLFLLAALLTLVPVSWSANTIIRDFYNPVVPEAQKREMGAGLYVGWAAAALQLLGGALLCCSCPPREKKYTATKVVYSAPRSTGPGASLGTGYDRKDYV
# B1: cysteine-substituted anti-Claudin3 human monoclonal antibody h4G3cys (light chain Q125C) (antibody, human IgG1, kappa, V domains shown)
# VH: EVQLLESGGGLVQPGGSLRLSCAASGFTFSSYAMSWVRQAPGKGLEWVSIINPSGASTSHAQRFQGRFTISRDNSKNTLYLQMNSLRAEDTAVYYCARYGRYGSFDIWGQGTLVTVSS
# VL: QSVLTQPPSASGTPGQRVTISCSGSTSNIGRNYVSWYQQLPGTAPKLLIYDTSNKHFGVPDRFSGSKSGTSASLAISGLRSEDEADYYCQSYDSSKVVFGGGTKLTVLR
# notes: also called modified anti-Claudin3 antibody; anti-Claudin3 antibody variant
# Molecular target: T1, Claudin3
# Assay: fluorescence of FITC-labeled h4G3cys on CLDN3/TOV-112D cells, one-to-one two-state model
binder,measurement,value
B1,Kd,5.24 nM
